Earlier results, collected in paper PMC7687155.

Molecular target: Sep15 (Homo sapiens) (UniProt O60613)
Sequence (O60613 32-165): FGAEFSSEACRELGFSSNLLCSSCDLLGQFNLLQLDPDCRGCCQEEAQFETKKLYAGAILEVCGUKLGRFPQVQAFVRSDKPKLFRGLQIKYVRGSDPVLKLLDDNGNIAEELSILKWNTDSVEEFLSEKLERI

Chain of UGGT1 (Q9NYU2 43-1555): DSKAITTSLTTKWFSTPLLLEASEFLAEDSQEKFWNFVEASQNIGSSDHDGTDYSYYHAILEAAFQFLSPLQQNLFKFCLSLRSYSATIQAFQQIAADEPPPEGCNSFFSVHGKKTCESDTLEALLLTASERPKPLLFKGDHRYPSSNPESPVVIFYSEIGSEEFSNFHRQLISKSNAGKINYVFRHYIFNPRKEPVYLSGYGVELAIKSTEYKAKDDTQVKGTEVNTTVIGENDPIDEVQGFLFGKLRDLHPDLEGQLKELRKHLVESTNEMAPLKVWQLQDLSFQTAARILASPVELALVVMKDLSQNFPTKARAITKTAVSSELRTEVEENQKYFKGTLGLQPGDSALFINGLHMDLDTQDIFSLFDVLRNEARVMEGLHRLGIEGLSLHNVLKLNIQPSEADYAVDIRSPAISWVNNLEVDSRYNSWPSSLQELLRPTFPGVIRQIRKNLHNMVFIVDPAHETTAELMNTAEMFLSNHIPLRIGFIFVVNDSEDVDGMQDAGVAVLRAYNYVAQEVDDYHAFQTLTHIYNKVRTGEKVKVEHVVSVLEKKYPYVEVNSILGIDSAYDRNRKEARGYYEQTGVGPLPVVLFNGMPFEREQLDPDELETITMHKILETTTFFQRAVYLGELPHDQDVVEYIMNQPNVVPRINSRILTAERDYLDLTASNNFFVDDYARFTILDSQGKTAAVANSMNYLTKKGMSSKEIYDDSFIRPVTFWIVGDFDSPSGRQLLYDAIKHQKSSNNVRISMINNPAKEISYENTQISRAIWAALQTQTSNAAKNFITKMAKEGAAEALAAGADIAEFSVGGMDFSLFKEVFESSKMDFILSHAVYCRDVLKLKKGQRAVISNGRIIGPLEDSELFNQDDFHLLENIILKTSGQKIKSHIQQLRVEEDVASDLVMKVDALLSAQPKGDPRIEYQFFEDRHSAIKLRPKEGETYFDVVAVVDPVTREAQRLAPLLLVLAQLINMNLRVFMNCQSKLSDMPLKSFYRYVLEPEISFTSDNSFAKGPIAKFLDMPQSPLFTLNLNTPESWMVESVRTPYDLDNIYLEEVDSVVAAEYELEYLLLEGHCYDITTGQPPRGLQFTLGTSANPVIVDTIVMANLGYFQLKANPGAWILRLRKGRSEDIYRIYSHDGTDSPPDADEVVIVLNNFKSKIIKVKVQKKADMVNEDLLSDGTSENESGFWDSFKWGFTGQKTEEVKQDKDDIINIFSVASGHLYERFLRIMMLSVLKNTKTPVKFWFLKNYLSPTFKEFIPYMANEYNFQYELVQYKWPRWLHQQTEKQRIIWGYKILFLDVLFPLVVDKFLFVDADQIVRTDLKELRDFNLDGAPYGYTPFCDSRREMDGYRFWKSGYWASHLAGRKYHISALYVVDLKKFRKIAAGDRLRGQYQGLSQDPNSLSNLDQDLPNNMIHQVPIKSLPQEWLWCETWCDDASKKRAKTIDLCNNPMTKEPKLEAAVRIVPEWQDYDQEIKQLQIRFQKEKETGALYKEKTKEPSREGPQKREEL

- Kd: 20 nM
Substance: UGGT1 (from UniProt Q9NYU2)
